Source: the DeepSol protein solubility set

Assay: soluble on expression in E. coli; label from the status in PepcDB or PDB records

Sequence	soluble on expression in E. coli
MNQYSSFSPSSPSSSSRPSGGGGQSSHQTTPKSSGNPRQQQAQPRHRQRKAQSSSPASLAAFASSSVCSSPSARNVPLPPVEWLNQLQVPGQLENSSRPSSSISMTSSASSSTSSLSSSDAPMITMTPRRAAQKEMKPKTDVLGVRVCPLQLIAAIASA	not soluble
AIASSAIERKSLDPSEEPVDEVLQIPPSLLTCGGCQQNIGDRYFLKAIDQYWHEDCLSCDLCGCRLGEVGRRLYYKLGRKLCRRDYLRLFGQDGLCASCDKRIRAYEMTMRVKDKVYHLECFKCAACQKHFCVGDRYLLINSDIVCEQDIYEWTKINGMI	soluble
MSLYVPGKQVTLAHIIASPNKEIYTKLGLPEGTSNALGILTITPSEAAIIAVDIATKSGDIQIGFIDRFSGSVVISGDVSSVEAALQAVIEGLQQILNFSVTCKEGHHHHHH	not soluble
PDSAVVRIHSSSGTTGKPVIIPYTRNDVDTWAELMMRCYMLAGLTNQDRIQITPGYGLWTAGIGFQLGAERLGAMAIPTGPGNTEKQLEMLVDLKTTALASTSSYALLLAEEIEKRGLKDRIHLRTGVIGSERWSEKMRSRIENELGIETFDIYGLTEIYGPGIALDCSYHEGMHYW	not soluble
MGHHHHHHSHMEMASADSDEDPRHKVGKTPHLTLPADLQTLHLNRPTLSPESKLEWNNDIPEVNHLNSEHWRKTEKWTGHEETNHLETDFSGDGMTELELGPSPRLQPIRRHPKELPQYGGPGKDIFEDQLYLPVHSDGISVHQMFTMATAEHRSNSSIAGKMLTKVEKNHEKEKSQHLEGSASSSLSSD	not soluble
MFKRLMMVALLVIAPLSAATAADQTNPYKLMDEAAQKTFDRLKNEQPQIRANPDYLRTIVDQELLPYVQVKYAGALVLGQYYKSATPAQRDAYFAAFREYLKQAYGQALAMYHGQTYQIAPEQPLGDKTIVPIRVTIIDPNGRPPVRLDFQWRKNSQTGNWQAYDMIAEGVSMITTKQNEWGTLLRTKGIDGLTAQLKSISQQKITLEEKK	not soluble
MSAIWLSGAQAFCPAPASLPVAHVQRVVDGDTLRLTDGRNVRMIGLNTPETGKKGRSAEPFAEAAKKRLQALVDKSGGQISLRVGQQGKDHYGRTLANVYGRNGDNLEAQLLSEGLGYLVAVAPNVALVDCQQSAEREARQARRGVWRNSQVQPSDKLRKGGFAVVSGKVRSVQRNRGGIWIELHGSVVLRVAPDQAFRFDMAALERLKGRQIETRGWVIDRSGRGGLKAGQSRWMIALSHPAMLSLLEHHHHHH	not soluble
MAHHHHHHMSTIYNAVDASTLNDRCRTDLLDTVAQLGRHCETLPKKAVTTADAPLPSCTFNTTVSRSQKEINCSNEAALDKYIEEKGATRWRTTQALASTYFKDHKPKFHGALRTQDCFRDTRDITQLSSKEKDFVHRYAEAKMKKSIPREESDDVAKKVATEAYTEAFRKFKGRDPTEKELLEVERLYFAYADDGAVGVVQKPHFHGPHMHVSICNRKYVTCPNQVYRASLPAVRNARSRFPGPIPVWTSTKNLHAVVSNDTYRPGVHNVSKFGETSSK	not soluble
DIIITAGGKNITPAEIESRLKFSHYISDAVIVGDKRKFLTCLIMIDQENVEKFAQDRKVPFSNFASLCAAKEVRELIAAEVAQVNKEFARVEQIKDFRLIDVLLTAEDDELTATMKLKRSFVEKKHAHLIEDMYK	soluble
MEPEDTQLKEDIKTTVNYIKQHGVEFENKLLEDERFSFIKKDDPLHEYYTKLMNEPTDTVSGEDNDRKSEREIARPPDFLFSQYDTGISRRDMEVIKLTARYYAKDKSIVEQMISKDGEARLNFMNSSHPLHKTFTDFVAQYKRVYSFTGQEIKKSKRTILDNCFERTQYWEFEKDKDREHDKLVELCKIQFAAIPWDKFTQVAKFSIPEDTEIFEGSLDLEQMRLRRVQTGIKLFDSIKPTNEEEKIVSDQGKQKGGDSKGKKRKIRAVGETRLKKSKK	soluble
MGSDKIHHHHHHMKVSDIMTPDPITYHVPSSINEVIKVLIKYNVTGVPITDQSGHYAGFVSRRDVFANPRETQTAMVMRRSKAVYEDDEVRTAALEMLAQKKRHLTVVDRDGHVKGILTPQNFMKTIKENYGNVKVKEVMKETSVPIWYKTPLPAILTVMNVSGIFSFPVIDDNGTFVGLLVDRDIFDRIDLKFDSILSEMGIADDEDPWSWTGLRNVFKYVVERADIKLPKISADEIMVKNPTVVYANDKLSTAAELMIKYNYNQLPVLDDSHGIYGMLYDIEMLGVFQ	not soluble
MGSDKIHHHHHHMTTSSVRYPQRVRNELRFRELIVLRVERISAGFQRIVLGGEALDGFISLGFDDHTKVFFPEPGCRFTPPTVTEEGIIWGEGVRPVSRDYTPLYDEARRELALDFFIHDGGVASRWAMEAREGDTLTIGGPRGSLVVPEEYACQVYVCDESGMPALRRRLESLSRLPVRPAVTALVSIQDAAYRDYLAHLTDITVEYVVGGDEQAMQTRLSQLTIPESDYFIWITGEGKTVKRLSQCFEKGFDPHLVRAAAYWHRK	not soluble
MTLYIIANPHAGNKNASTIVGKIQELYHTEDISVFYTEQKDDEKKQVINILRSFKESDHLMIIGGDGTLSKVMTYLPQHIPCTYYPVGSGNDFARALKIPNLKETLTAIQTERLKEINCFIYDKGLILNSLDLGFAAYVVWKASNSKIKNILNRYRLGKITYIVIAIKSLLHSSKVQVLVEGETGQQIKLNDLYFFALANNTYFGGGITIWPKASALTAELDMVYAKGHTFLKRLSILLSLVFKRHTTSKSIKHQTFKAMTVYFPKNSLIEIDGEIVELDQISLKCQKRYLYM	not soluble
MSLNTQDFLAGYTKRFVDNKEEDMSLDEYLELCKTDPTAYANPAERLLMAIGEPELIDTRHDPVLSRIFSNKIIHHYEVFKDFYGMEEPIEQIVGFLKHAAQGLEETKQVLYLLGPVGGGKSSIAEKLKDLMERIPFYAIKGSPVFESPLSLFNPLEDGELLRERFGIPTRYLRYLMSPWAVKRLQEYNGDISKFRVIKVKPSRLKQIAIAKTEPGDENNQDISSLVGKVDIRKLEEFSQDDPDAYSYSGGLCRANRGLLEFVEMFKAPIKVLHPLLTATQEGNYNATEGLSAIPFEGIILAHSNESEWQSFRNNEGHHHHHH	not soluble
MSTTKAFKMTYTNAGNKKTEQVIQATEPLTILLMGVDTGGEGRGTSDSWNGNSDSQILMTLNPKTHTTTMVSIERDTMTNILDADGNIVSKQKMNAAYPLGYNSGSSSDGLKNAVSYAMKTISAQTGINIDSFVTVNFDGLVNMVDNVGGIDINNTTGQTLYISDTEPQYTAKVPPGKQHINGDQALVYTRDRHHLSNGDYGRAAHQREVIAALMKKILALDNITRYEQFLNEASKDFRTNIPINASTITSLLGYKDCFNKVVSIQYEGVGEMVDGASYQFMPTDIYLAMQNIMKKSLDESTVTTLPSSLITYESVFGSGTAPFYYLPSATVTEKGKSTVTYGVDTQGNLVSLNSKNSGNYVSTSGGSVQSDSSSGSSSSSSDSTATSSSDSTYQQDNTYNDGYNNSNDSTTSSYGTDDTNTGNYGYGTSQLEHHHHHH	soluble
AHHHHHHGSEIKYRPEELTKLPRSVEYREGKVYMINQRLLPREFKVEEFTTVEAVAEAIKNMTVRGAPAIGAAAAFGLALYAETSKAKTKDEFFDGFYRAYETLKNTRPTAVNLFWALNRIKKLVEEHREDSLDEIKRLIVEEAQKIADEDVEANLRMGHYGAEVLPEGNILTHCNAGSLATVHLGTVGAVVRVMHKEGTLKLLWLDETRPVLQGARLSAWEYSYDGLNVKLIADNAAAFVMQQGKVDAIIVGADRIVANGDFANKIGTYMLAVLAKEHGIPFFTVAPLSSIDMSLSSGKEIPIEERSPEEVLTCGGCRIAPDVPVYNPAFDVTPHKYLTGIITDRGVVWPPFKRNLKKLFETL	soluble
LGGAQETAETMAKESMVLLKNTDDTLPLSGDESVLLTGPGVDSNGNNTRALMQHGGWTLGWQGASAGGPFPRQNLLEAELRARVGSLTHVPTSYENTTWWAGEGDGGNQQSDENGNFDFTAEQRSRVESAGPESDVVVVVLGEGTHNEGFGDRDELVLDESQQALLDTVVESTDDSAPIIGVMLAGSPRGSPETFSQLDALLFAGQPGSDGGVAIAETLVGEYNPSGKLPFSWPENVGTTPVQYTRYDPTSTGGTDNTAIYEYGHGLSYTDF	not soluble
MSQSKVAMKKDSMRKNKKLVINIALDKEVLASRVEADHDLGSVRDEKERLESSERRREVCSKAEDIVDKAIDNHSRVRGDGIMREADVGTGLSGALNRLREQGTFKEEGKVVGVKDNNHEDDRFKDRFKDIQIQRVNKWGRIMTEKEAYRSLCHGFHGKGPGKKKQEKQRKKHEDKSKQMESSERSVERIREIHAISKTPYIVL	soluble
GMLPDDVNQADVLADVTAAFYRYEKALTGNDVAVLDELFWHDEKTVRYGAGENLYGIEEIRAFRLARPSAGLDRALRNTVITTYGHDMAVASTEFTRTGSTKIGRQMQTWVKMPEGWRIVAAHVSLMSE	soluble
MPPRKIKKDPAVVAMADTLETRVKDLLEEYKKKLREVALQTAKAESDRIIATIKPKYRDMPIMEFLASPPDDFYIESGEEEEEGEAAVAVKQELPSEPDMEIDDAAAAQKTSIPIGQNSGRNTVQVKQEPEIDDDAAHETSIPIAPSGQNSGRNTAADEHRRNEIITPAGQVLPLPTLQPEKPFRAPHVDEEIAFSVNGSPLVLAGRTTATAAGKENRKKSKKSGAASKKAAAAAGPLQPETENAGTSV	not soluble
PGRPTMMISTTAMNTALLQWHPPKELPGELLGYRLQYCRADEARPNTIDFGKDDQHFTVTGLHKGTTYIFRLAAKNRAGLGEEFEKEIRTPEDL	soluble
MRHPLISLLLLIAFYSTSSEAFVPKCNSFYVRWPRVRLNFKAVAEARLSLKGCQSACSLGEDPVSPGKQLECAAVNHQASPDGFSHLCAVFQPHQLQNVDGYVEADDRFTFYWKYCLPSTRKCSGEYAFTYLSDRYMDQKSVIKWTTKANLEECLSDCLDEKSFECRSISFNRTDGGCHMSKDSQISRPEAIRLNNNPNYRIDYYENNCYNLSESFTFKHECRDNGISVSVKSRLPYTGAIYGLYDFFTCRTEPKEATEFDHFFPYQTVSKNCSDSIKYKGNEMVLEVVLSTDGIEPLYFITPEDLTYQAKCPISGVKAKDPANTKSSAHLDNRNKAMEASAHALFELLSKTGDDEALQNTFPLPLTTTTEVISDVPTTTVQTSTTVPTTPSKTTATTTTTPKPTTTETATTSSSTTTVTTQKPTTVTSTTTLPSTTASTTTKTTTSTPTSPQTTTTHVGAPASSVASVAHDGSTLAGKPKVPVIFDIFHNGQPVEAVVVGTKISLSFRPHYPIPPEYVDVRGCQVEPIDPKYEWEHEPLFIIRDGCPADGVGLVCPPTHSEFGAKVSVEAFRYQTTGQVQYSCLVRICPFAPCPKNTCDDVEGCDSSYMHRYRRELSLEDIKKALEANPELASQFGISPSAFARNPSKSKNFTSVVEEQQRIALGGDYLVRRRLIVVNSEDQLRYYVRTGNI	not soluble
MAHHHHHHMLHTTRLWLGGYMMYHRKAMGTMKYSKWKGAHGGISHFYGRTPMVEEVRPNEPITLVDRRIMHYVHHSRLRHFQLFRSYQEKSNSTECKLREGEMLRRRWHRRLQKSFIAFMQFKTMKVLEDQARLVNTYGQAAVNAALGDPWNATDNVARERKSAAVRRQVRALPMVNVVPKHVATMKQIHNDRFNYRWRVN	not soluble
